Test [1] addresses T1, full-length human LRH-1 (Liver Receptor Homolog-1; NR5A2), wild type (human, UniProt O00482 1-541). Put plainly: fluorescence polarisation.
The target of test [2] is full-length human LRH-1 S148R (human, UniProt O00482 1-541, S148R). Put plainly: fluorescence polarisation. In general terms: Fluorescence polarisation rises when a labelled molecule tumbles more slowly, as on binding a larger partner.
In test [3] the target is full-length human LRH-1 D314R (human, UniProt O00482 1-541, D314R). The test can be described thus: fluorescence polarisation.
Sequence of full-length human LRH-1 D314R (O00482 whole entry D314R): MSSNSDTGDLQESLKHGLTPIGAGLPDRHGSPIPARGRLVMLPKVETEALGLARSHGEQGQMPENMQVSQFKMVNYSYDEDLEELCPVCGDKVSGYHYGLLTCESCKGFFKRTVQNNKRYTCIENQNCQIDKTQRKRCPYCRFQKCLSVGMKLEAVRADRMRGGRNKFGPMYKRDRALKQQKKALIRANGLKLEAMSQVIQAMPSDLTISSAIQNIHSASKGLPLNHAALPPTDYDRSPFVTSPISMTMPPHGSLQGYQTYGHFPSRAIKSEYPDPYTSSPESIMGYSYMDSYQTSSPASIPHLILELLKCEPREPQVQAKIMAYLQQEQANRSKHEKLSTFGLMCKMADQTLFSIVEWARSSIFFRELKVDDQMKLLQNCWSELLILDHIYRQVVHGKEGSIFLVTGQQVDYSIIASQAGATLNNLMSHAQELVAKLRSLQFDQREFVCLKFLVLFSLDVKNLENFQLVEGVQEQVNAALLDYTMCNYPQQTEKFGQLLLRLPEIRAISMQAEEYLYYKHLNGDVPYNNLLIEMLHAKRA
In test [4] the target is full-length human LRH-1 R174D/D314R (human, UniProt O00482 1-541, R174D | D314R). Put plainly: fluorescence polarisation.
Sequence of full-length human LRH-1 R174D/D314R (O00482 whole entry R174D/D314R): as the sequence (O00482 whole entry D314R) above, with R174D counted along it
Test [5] has as its target full-length human LRH-1 A324R (human, UniProt O00482 1-541, A324R). The test can be described thus: fluorescence polarisation.
The target of test [6] is T1, full-length human LRH-1 (Liver Receptor …). The test can be described thus: cross-linking.

Ends that are not written are not given here.

T1 sequence (O00482 whole entry): as the sequence (O00482 whole entry D314R) above, with R314D counted along it
Sequence of full-length human LRH-1 A324R (O00482 whole entry A324R): as the sequence (O00482 whole entry D314R) above, with R314D, A324R counted along it
Sequence of full-length human LRH-1 S148R (O00482 whole entry S148R): as the sequence (O00482 whole entry D314R) above, with S148R, R314D counted along it

Usually Kd stands for the equilibrium constant for the complex coming apart. The low end stands for tighter binding, the high end for weaker binding. With {FAM}-EEPSLLKKLLLAPA [N-terminally FAM-labeled PGC1α co-regulator peptide (740-EEPSLLKKLLLAPA-753)], the dissociation constant Kd in test [1] came out at 1360 nM; in test [2], 7030 nM; in test [3], 2280 nM; in test [4] it was 1720 nM; in test [5], 1510 nM.
For the molecule EEPSLLKKLLLAPA [PGC1α co-activator peptide (740-EEPSLLKKLLLAPA-753), unlabeled], in test [6], the binding result is “binds”.

These data come from PMC7347456 (Structure (London, England : 1993), 2020).
